Laboratory results published in PMC7801428 (2021).

Target: SARS-CoV-2 RBD (residues V320 to G550, strain Wuhan-Hu-1), C-terminal His tag (SARS-CoV-2, UniProt P0DTC2 320-550)
Experiment: BLI

B1: human-mouse chimeric antibody 3C1 (c3C1) (antibody, V domains shown)
VH: EVQLQESGPSLVKPSQTLSLTCSVTGDSITNGYWNWIRKFPGNKLEYMGYISYSGSTYYSPSLKSRISITRDTSKNQHYLQLNSVTSEDTATYYCASDYHGSKYYFDYWGQGTTLTVSS
VL: DIVMTQSHKFMSTSVGHRVSITCKASQDVGNDVAWYQQKPGQSPKLLIYWASTRHTGVPDRFTGSGSGTDFTLTISNVQSEDLADYFCQQYNRYPYTFGGGTKLEIK
**Q.** With B1 as the binder, how does the koff read?
**A.** < 1e-07 s⁻¹
